Assay results reported in US20230279089A1 (GlaxoSmithKline, published 2023).
Numbering of substitutions follows the chain as printed. Values belong to the binder of their own block, whether it stands above or below them.

Tests used:
Test in all cases: cell-based or functional assay
Cyno TLL1 = target: T1, Cyno TLL1 (cyno, UniProt A0A1D5QYV0 148-1013 (rhesus entry))
T1 sequence: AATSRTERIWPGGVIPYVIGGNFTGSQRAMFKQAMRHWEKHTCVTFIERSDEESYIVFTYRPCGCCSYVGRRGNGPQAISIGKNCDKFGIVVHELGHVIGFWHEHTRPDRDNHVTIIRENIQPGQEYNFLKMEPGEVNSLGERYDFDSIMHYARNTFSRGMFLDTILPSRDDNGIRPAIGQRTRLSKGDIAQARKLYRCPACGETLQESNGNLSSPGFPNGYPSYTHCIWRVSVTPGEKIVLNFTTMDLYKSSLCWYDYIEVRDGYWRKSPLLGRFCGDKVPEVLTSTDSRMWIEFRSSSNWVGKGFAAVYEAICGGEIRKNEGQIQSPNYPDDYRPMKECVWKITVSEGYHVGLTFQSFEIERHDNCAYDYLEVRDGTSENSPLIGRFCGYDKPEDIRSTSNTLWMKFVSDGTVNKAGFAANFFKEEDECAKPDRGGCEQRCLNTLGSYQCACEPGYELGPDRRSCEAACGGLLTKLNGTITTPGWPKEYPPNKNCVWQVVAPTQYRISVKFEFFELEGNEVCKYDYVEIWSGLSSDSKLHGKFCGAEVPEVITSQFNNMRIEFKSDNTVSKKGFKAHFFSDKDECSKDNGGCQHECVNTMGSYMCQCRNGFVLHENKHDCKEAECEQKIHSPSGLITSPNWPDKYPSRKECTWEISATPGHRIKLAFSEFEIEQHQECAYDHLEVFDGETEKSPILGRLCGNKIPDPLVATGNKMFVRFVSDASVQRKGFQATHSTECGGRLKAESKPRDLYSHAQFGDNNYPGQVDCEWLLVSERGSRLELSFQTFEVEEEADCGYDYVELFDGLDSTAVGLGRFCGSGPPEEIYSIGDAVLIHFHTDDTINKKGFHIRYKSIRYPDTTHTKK

Mouse TLL1 = target: T2, Mouse TLL1 (mouse, UniProt Q62381 148-1013, limits assumed)
T2 sequence (looked up): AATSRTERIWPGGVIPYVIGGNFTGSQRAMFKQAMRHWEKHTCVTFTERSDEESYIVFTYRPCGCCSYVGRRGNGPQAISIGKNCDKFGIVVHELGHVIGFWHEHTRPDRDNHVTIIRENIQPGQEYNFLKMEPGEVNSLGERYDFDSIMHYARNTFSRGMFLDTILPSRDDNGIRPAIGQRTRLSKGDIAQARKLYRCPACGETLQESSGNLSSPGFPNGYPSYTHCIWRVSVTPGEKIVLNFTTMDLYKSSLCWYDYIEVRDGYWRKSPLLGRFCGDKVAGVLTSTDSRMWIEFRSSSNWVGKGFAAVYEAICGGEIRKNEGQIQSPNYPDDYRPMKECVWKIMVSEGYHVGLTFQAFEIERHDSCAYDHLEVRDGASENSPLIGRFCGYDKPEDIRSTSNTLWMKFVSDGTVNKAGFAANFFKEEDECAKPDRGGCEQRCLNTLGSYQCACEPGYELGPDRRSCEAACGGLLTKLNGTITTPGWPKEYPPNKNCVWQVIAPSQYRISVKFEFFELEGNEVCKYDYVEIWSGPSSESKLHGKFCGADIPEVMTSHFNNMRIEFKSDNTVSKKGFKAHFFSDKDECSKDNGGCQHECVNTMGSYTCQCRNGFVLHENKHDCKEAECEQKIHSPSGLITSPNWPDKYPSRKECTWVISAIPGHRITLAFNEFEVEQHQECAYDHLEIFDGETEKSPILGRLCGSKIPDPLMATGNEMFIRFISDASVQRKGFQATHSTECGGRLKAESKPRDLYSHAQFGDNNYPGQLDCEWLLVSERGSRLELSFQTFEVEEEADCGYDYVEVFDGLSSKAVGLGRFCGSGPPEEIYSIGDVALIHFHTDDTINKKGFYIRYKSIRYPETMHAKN

Human TLL1 = target: T3, Human TLL1 (human, UniProt O43897 148-1013, limits assumed)
T3 sequence (looked up): T1 sequence with V281L, G350S, D538E, E617D, A833S

B1: 13Y039-4B06-4324 (antibody, human IgG1, kappa, V domains shown)
VH: QVQLVQSGAEVKKPGASVKVSCKASGYTFRGYYMSWVRQAPGQGLEWMGWINPMSGETNYAQKFQGRVTMTRDTSISTAYMELSRLRSDDTAVYYCARDTGELDGMNWYFDLWGRGTLVTVSS
VL: EIVLTQSPATLSLSPGERATLSCRASQSVSSYLAWYQQKPGQAPRLLIYDASNRATGIPARFSGSGSGTDFTLTISSLEPEDFAVYYCQQSDSWPPTFGGGTKVEIKR
notes: Fully human IgG1 LAGA, kappa; HEK expressed
IC50, FRET enzyme activity, 750 pM biotinylated cynoTLL-1 (Cyno TLL1): 0.07 nM
IC50, FRET enzyme activity, 800 pM biotinylated mTLL-1 (Mouse TLL1): 0.1 nM
IC50, FRET enzyme activity, 250 pM biotinylated huTLL-1 (Human TLL1): 0.03 nM

B3: 13Y039-4B06-4364 (antibody, human IgG1, kappa, V domains shown)
VH: B1 VH with M54N, N59I
VL: B1 VL
notes: as for B1
IC50, FRET enzyme activity, 750 pM biotinylated cynoTLL-1 (Cyno TLL1): 0.11 nM
IC50, FRET enzyme activity, 800 pM biotinylated mTLL-1 (Mouse TLL1): 0.13 nM
IC50, FRET enzyme activity, 250 pM biotinylated huTLL-1 (Human TLL1): 0.06 nM

B4: 13Y039-4B06-4373 (antibody, human IgG1, kappa, V domains shown)
VH: B1 VH with G31S, S35N, W50I, M54S, N59S, I76T, A79V, R85S, D89E
VL: B1 VL
notes: as for B1
IC50, FRET enzyme activity, 750 pM biotinylated cynoTLL-1 (Cyno TLL1): 0.08 nM
IC50, FRET enzyme activity, 800 pM biotinylated mTLL-1 (Mouse TLL1): 0.13 nM
IC50, FRET enzyme activity, 250 pM biotinylated huTLL-1 (Human TLL1): 0.04 nM

B5: 13Y039-4B06-4325 (antibody, human IgG1, kappa, V domains shown)
VH: B1 VH with R30W, M54Q
VL: B1 VL
notes: as for B1
IC50, FRET enzyme activity, 750 pM biotinylated cynoTLL-1 (Cyno TLL1): 0.05 nM
IC50, FRET enzyme activity, 800 pM biotinylated mTLL-1 (Mouse TLL1): 0.07 nM
IC50, FRET enzyme activity, 250 pM biotinylated huTLL-1 (Human TLL1): 0.02 nM

B7: 13Y039-4B06-4351 (antibody, human IgG1, kappa, V domains shown)
VH: B1 VH with R30S, M54N, N59F
VL: B1 VL
notes: as for B1
IC50, FRET enzyme activity, 750 pM biotinylated cynoTLL-1 (Cyno TLL1): 0.13 nM
IC50, FRET enzyme activity, 800 pM biotinylated mTLL-1 (Mouse TLL1): 0.14 nM
IC50, FRET enzyme activity, 250 pM biotinylated huTLL-1 (Human TLL1): 0.05 nM

B10: 13Y039-127G03-2890 (antibody, human IgG1, kappa, V domains shown)
VH: QVQLVQSGAEVKKPGSSVKVSCKASGGTFSSYAISWVRQAPGQGLEWMGGIIPVFGSAYYAQKFQGRVTITADESTSTAYMELSSLRSEDTAVYYCAGEGRAYYGSESYDDSDYMDVWGKGTTVTVSS
VL: DIQMTQSPSSLSASVGDRVTITCQASQDISNYLNWYQQKPGKAPKLLIYDASNLETGVPSRFSGSGSGTDFTFTISSLQPEDIATYYCQQADIFPLTFGGGTKVEIKR
notes: as for B1
IC50, FRET enzyme activity, 750 pM biotinylated cynoTLL-1 (Cyno TLL1): 0.22 nM
IC50, FRET enzyme activity, 800 pM biotinylated mTLL-1 (Mouse TLL1): 0.88 nM
IC50, FRET enzyme activity, 250 pM biotinylated huTLL-1 (Human TLL1): 18.2 nM

B11: 13Y039-152B02-2940 (antibody, human IgG1, kappa, V domains shown)
VH: QVQLVQSGAEVKKPGSSVKVSCKASGGTFSSDAISWVRQAPGQGLEWMGGIITNFGTATYAQKFQGRVTITADESTSTAYMELSSLRSEDTAVYYCARDVGVQLVYHGAFDIWGQGTMVTVSS
VL: B10 VL with E55A, A91D, I93Y, F94L, L96I
notes: as for B1
IC50, FRET enzyme activity, 750 pM biotinylated cynoTLL-1 (Cyno TLL1): 0.06 nM
IC50, FRET enzyme activity, 800 pM biotinylated mTLL-1 (Mouse TLL1): 0.1 nM
IC50, FRET enzyme activity, 250 pM biotinylated huTLL-1 (Human TLL1): 0.05 nM

B12: 13Y039-152B02-2935 (antibody, human IgG1, kappa, V domains shown)
VH: B11 VH with S31E, D32S, T53P, N54T, G56D, A58T, T59N
VL: B10 VL with E55A, A91D, I93Y, F94L, L96I
notes: as for B1
IC50, FRET enzyme activity, 750 pM biotinylated cynoTLL-1 (Cyno TLL1): 0.11 nM
IC50, FRET enzyme activity, 800 pM biotinylated mTLL-1 (Mouse TLL1): 0.07 nM
IC50, FRET enzyme activity, 250 pM biotinylated huTLL-1 (Human TLL1): 0.09 nM

B13: 13Y039-152B02-2948 (antibody, human IgG1, kappa, V domains shown)
VH: B11 VH with S31D, D32F, T53P, N54I, F55Y, T59S, Q65L
VL: B10 VL with E55A, A91D, I93Y, F94L, L96I
notes: as for B1
IC50, FRET enzyme activity, 750 pM biotinylated cynoTLL-1 (Cyno TLL1): 0.07 nM
IC50, FRET enzyme activity, 800 pM biotinylated mTLL-1 (Mouse TLL1): 0.11 nM
IC50, FRET enzyme activity, 250 pM biotinylated huTLL-1 (Human TLL1): 0.08 nM

Other lines, results leading:

IC50, FRET enzyme activity, 750 pM biotinylated cynoTLL-1 (Cyno TLL1): 0.07 nM
IC50, FRET enzyme activity, 800 pM biotinylated mTLL-1 (Mouse TLL1): 0.07 nM
IC50, FRET enzyme activity, 250 pM biotinylated huTLL-1 (Human TLL1): 0.04 nM
B2: 13Y039-4B06-4328 (antibody, human IgG1, kappa, V domains shown)
VH: B1 VH with R30H, S35N, M54L
VL: B1 VL
notes: as for B1

IC50, FRET enzyme activity, 750 pM biotinylated cynoTLL-1 (Cyno TLL1): 0.18 nM
IC50, FRET enzyme activity, 800 pM biotinylated mTLL-1 (Mouse TLL1): 0.12 nM
IC50, FRET enzyme activity, 250 pM biotinylated huTLL-1 (Human TLL1): 0.04 nM
B6: 13Y039-4B06-4348 (antibody, human IgG1, kappa, V domains shown)
VH: B1 VH with R30G, M54N, N59Y
VL: B1 VL
notes: as for B1

IC50, FRET enzyme activity, 750 pM biotinylated cynoTLL-1 (Cyno TLL1): 0.15 nM
IC50, FRET enzyme activity, 800 pM biotinylated mTLL-1 (Mouse TLL1): 0.16 nM
IC50, FRET enzyme activity, 250 pM biotinylated huTLL-1 (Human TLL1): 0.07 nM
B8: 13Y039-4B06-4376 (antibody, human IgG1, kappa, V domains shown)
VH: B1 VH with R30M, S35N, M54S
VL: B1 VL
notes: as for B1

IC50, FRET enzyme activity, 750 pM biotinylated cynoTLL-1 (Cyno TLL1): 0.02 nM
IC50, FRET enzyme activity, 800 pM biotinylated mTLL-1 (Mouse TLL1): 0.04 nM
IC50, FRET enzyme activity, 250 pM biotinylated huTLL-1 (Human TLL1): 0.01 nM
B9: 13Y039-4B06-4327 (antibody, human IgG1, kappa, V domains shown)
VH: B1 VH with R30P, S35T, W50N, M54N, E57W
VL: B1 VL
notes: as for B1
